Measurements from US20250333523A1 (Alector, published 2025).
Where a chain is given by its changes, count along the chain named.

T1: Avi/His-HuIL18BPa (recombinant human IL-18BP isoform A with Avi and poly-His tags) (human, biotinylated with BirA on the Avi tag in some assays)
T1 chain: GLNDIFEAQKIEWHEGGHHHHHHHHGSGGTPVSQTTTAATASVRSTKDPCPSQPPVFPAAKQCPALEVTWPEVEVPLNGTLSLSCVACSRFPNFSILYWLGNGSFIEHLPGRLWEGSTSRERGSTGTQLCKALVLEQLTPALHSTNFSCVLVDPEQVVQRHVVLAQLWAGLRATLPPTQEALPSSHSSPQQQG

T2: Avi/HisMsIL18BPd (recombinant mouse IL-18BP with Avi and poly-His tags) (mouse, biotinylated with BirA on the Avi tag in some assays)
T2 chain: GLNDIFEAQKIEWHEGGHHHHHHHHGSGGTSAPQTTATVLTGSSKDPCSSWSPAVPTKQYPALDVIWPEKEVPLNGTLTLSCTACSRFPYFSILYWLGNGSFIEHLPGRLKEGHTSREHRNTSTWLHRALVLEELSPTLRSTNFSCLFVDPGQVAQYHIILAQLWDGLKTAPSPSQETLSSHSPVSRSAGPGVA

T3: His/Avi-CynoIL18BP (recombinant cynomolgus IL-18BP with His and Avi tags) (cynomolgus monkey)
T3 construct: also called cynomolgus IL-18BP-Avi-His
T3 chain: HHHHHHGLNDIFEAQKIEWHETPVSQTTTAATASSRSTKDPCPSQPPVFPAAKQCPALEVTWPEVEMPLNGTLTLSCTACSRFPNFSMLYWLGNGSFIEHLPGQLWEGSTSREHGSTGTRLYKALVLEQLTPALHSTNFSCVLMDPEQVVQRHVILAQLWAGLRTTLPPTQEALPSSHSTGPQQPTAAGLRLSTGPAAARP

B1: anti-IL-18BP antibody variant BP-04.04 (antibody, V domains shown)
VH: QVQLVQSGAEVKKPGASVKVSCKASGYTFTDYDMHWVRQAPGQGLEWMGIISTYYGDVSYAQKKQGRVTMTRDKSTSTVYMELSSLRSEDTAVYYCARSGTYNYGTRESHPLDYWGQGTLVTVSS
VL: DIQMTQSPSSVSASVGDRVTITCRASDNVYSNLAWYQQKPGKAPKLLIYGAISLADGVPSRFSGSGSGTDFTLTISSLQPEDFATYYCQHFWGNPYTFGQGTKLEIK
B2: anti-IL-18BP antibody variant BP-04.16 (antibody, V domains shown)
VH: B1 VH with N103Y, P111A, L112F
VL: B1 VL
B3: anti-IL-18BP antibody variant BP-04.19 (antibody, V domains shown)
VH: B1 VH with D57V, K64F, N103Y, P111A, L112F
VL: B1 VL
B4: anti-IL-18BP antibody variant BP-04.02 (antibody, V domains shown)
VH: B1 VH with M34L, K64F, T101M, N103Y, P111A
VL: B1 VL
B5: anti-IL-18BP antibody variant BP-04.20 (antibody, V domains shown)
VH: B1 VH with D57V, K64F, N103Y
VL: B1 VL
B6: anti-IL-18BP antibody variant BP-04.12 (antibody, V domains shown)
VH: B1 VH with I51Y, D57V, N103Y, P111A
VL: B1 VL
B7: anti-IL-18BP antibody variant BP-04.11 (antibody, V domains shown)
VH: B1 VH with I51Y, D57V, K64F, P111A
VL: B1 VL
B8: anti-IL-18BP antibody variant BP-04.14 (antibody, V domains shown)
VH: B1 VH with K64F, P111A, L112F
VL: B1 VL
B9: anti-IL-18BP antibody variant BP-04.13 (antibody, V domains shown)
VH: B1 VH with K64F, N103Y, L112F
VL: B1 VL
B10: anti-IL-18BP antibody variant BP-04.26 (antibody, V domains shown)
VH: B1 VH with I51Y, D57V, K64F, N103Y, P111A
VL: B1 VL
B11: anti-IL-18BP antibody variant BP-04.22 (antibody, V domains shown)
VH: B1 VH with D57V, N103Y, P111A
VL: B1 VL
B12: anti-IL-18BP antibody variant BP-04.06 (antibody, V domains shown)
VH: B1 VH with D57V, N103Y
VL: B1 VL
B13: anti-IL-18BP antibody variant BP-04.17 (antibody, V domains shown)
VH: B1 VH with N103Y
VL: B1 VL
B14: anti-IL-18BP antibody variant BP-04.10 (antibody, V domains shown)
VH: B1 VH with I51Y, D57V, K64F, N103Y
VL: B1 VL
B15: anti-IL-18BP antibody variant BP-04.18 (antibody, V domains shown)
VH: B1 VH with P111A
VL: B1 VL
B16: anti-IL-18BP antibody variant BP-04.23 (antibody, V domains shown)
VH: B1 VH with I51Y, K64F, N103Y, P111A, L112F
VL: B1 VL
B17: anti-IL-18BP antibody variant BP-04.31 (antibody, V domains shown)
VH: B1 VH with D57V, K64F, N103Y, P111A
VL: B1 VL
B18: anti-IL-18BP antibody variant BP-04.21 (antibody, V domains shown)
VH: B1 VH with D57V, K64F, P111A
VL: B1 VL
B19: anti-IL-18BP antibody variant BP-04.32 (antibody, V domains shown)
VH: B1 VH with I51Y, K64F, N103Y, P111A
VL: B1 VL
B20: anti-IL-18BP antibody variant BP-04.27 (antibody, V domains shown)
VH: B1 VH with K64F, N103Y, P111A, L112F
VL: B1 VL
B21: anti-IL-18BP antibody variant BP-04.07 (antibody, V domains shown)
VH: B1 VH with D57V, P111A
VL: B1 VL
B22: anti-IL-18BP antibody variant BP-04.05 (antibody, V domains shown)
VH: B1 VH with D57V, N103Y, P111A, L112F
VL: B1 VL
B23: anti-IL-18BP antibody variant BP-04.24 (antibody, V domains shown)
VH: B1 VH with I51Y, K64F, N103Y
VL: B1 VL
B24: anti-IL-18BP antibody variant BP-04.03 (antibody, V domains shown)
VH: B1 VH with K64F, D90N, N103Y, S109Q, P111A
VL: B1 VL
B25: anti-IL-18BP antibody variant BP-04.08 (antibody, V domains shown)
VH: B1 VH with I51Y, P111A
VL: B1 VL
B26: anti-IL-18BP antibody variant BP-04.09 (antibody, V domains shown)
VH: B1 VH with I51Y, D57V, K64F, N103Y, P111A, L112F
VL: B1 VL
B27: anti-IL-18BP antibody variant BP-04.01 (antibody, V domains shown)
VH: QVQLVQSGAEVKKPGASVKVSCKASGYTFTDYDMWVRQAPGQGLEWMGIISTYYGDVSYAIKFQGRVTMTRDKSTSTVYMELSSLRSEDTAVYYCARSGTYYYGTRESALDYWGQGTLVTVSS
VL: B1 VL
B28: anti-IL-18BP antibody variant BP-04.30 (antibody, V domains shown)
VH: B1 VH with N103Y, P111A
VL: B1 VL

Target: T1, Avi/His-HuIL18BPa (recombinant human …)
Assay: cell-based or functional assay

Binder | EC50 of IFNγ release, human PBMCs
B1 | 18.6 nM
B2 | 3.34 nM
B3 | 3.1 nM
B4 | 41.5 nM
B5 | 4.06 nM
B6 | 31.9 nM
B7 | 3.94 nM
B8 | 543 nM
B9 | 16.6 nM
B10 | 36.2 nM
B11 | 7.71 nM
B12 | 1.32 nM
B13 | 8.89 nM
B14 | 10.5 nM
B15 | 11.3 nM
B16 | 146 nM
B17 | 6.3 nM
B18 | 4.48 nM
B19 | 0.838 nM
B20 | 1.28 nM
B21 | 4.3 nM
B22 | 3.18 nM
B23 | 4.84 nM
B24 | 10.5 nM
B25 | 174 nM
B26 | 3.74 nM

Target: T2, Avi/HisMsIL18BPd (recombinant mouse …)
Assay: cell-based or functional assay

Binder | EC50 of IFNγ release, mouse splenocytes
B1 | 31.8 nM
B2 | 220 nM
B3 | 21.6 nM
B4 | 12.3 nM
B5 | 28.7 nM
B6 | 0.865 nM
B7 | 3.61 nM
B8 | 21.2 nM
B9 | 41.4 nM
B10 | 6.02 nM
B11 | 368 nM
B27 | 1.67 nM
B12 | 67.6 nM
B13 | 14.6 nM
B14 | 501 nM
B15 | 28.4 nM
B16 | 3.5 nM
B18 | 595 nM
B19 | 9.61 nM
B20 | 39.6 nM
B28 | 7.43 nM
B21 | 51.9 nM
B22 | 4.92 nM
B24 | 0.881 nM
B25 | 94.1 nM
B26 | 2.04 nM

Target: T1, Avi/His-HuIL18BPa (recombinant human …)
Assay: SPR Biacore T200, IgG captured on Protein A/G

Binder | Kd | koff | kon
B19 | 20 nM | 0.0074 s⁻¹ | 370000 M⁻¹ s⁻¹
B21 | 1.9 nM | 0.00068 s⁻¹ | 350000 M⁻¹ s⁻¹
B22 | 0.67 nM | 0.00034 s⁻¹ | 510000 M⁻¹ s⁻¹
B23 | 16 nM | 0.0047 s⁻¹ | 290000 M⁻¹ s⁻¹
B24 | 1.9 nM | 0.00091 s⁻¹ | 470000 M⁻¹ s⁻¹
B25 | 16 nM | 0.0035 s⁻¹ | 210000 M⁻¹ s⁻¹
B26 | 0.52 nM | 0.00028 s⁻¹ | 530000 M⁻¹ s⁻¹

Target: T3, His/Avi-CynoIL18BP (recombinant …)
Assay: SPR Biacore T200, IgG captured on Protein A/G

Binder | Kd | koff | kon
B19 | 59 nM | 0.02 s⁻¹ | 340000 M⁻¹ s⁻¹
B21 | 2.4 nM | 0.00076 s⁻¹ | 320000 M⁻¹ s⁻¹
B22 | 0.83 nM | 0.00038 s⁻¹ | 460000 M⁻¹ s⁻¹
B23 | 29 nM | 0.0059 s⁻¹ | 200000 M⁻¹ s⁻¹
B24 | 3.1 nM | 0.0013 s⁻¹ | 420000 M⁻¹ s⁻¹
B25 | 56 nM | 0.014 s⁻¹ | 260000 M⁻¹ s⁻¹
B26 | 1.3 nM | 0.0006 s⁻¹ | 450000 M⁻¹ s⁻¹
